Source: US20260297185 (published 2026)

Molecular target: T1, mouse DLK1 (moDLK1) (mouse, UniProt Q09163)
T1 chain: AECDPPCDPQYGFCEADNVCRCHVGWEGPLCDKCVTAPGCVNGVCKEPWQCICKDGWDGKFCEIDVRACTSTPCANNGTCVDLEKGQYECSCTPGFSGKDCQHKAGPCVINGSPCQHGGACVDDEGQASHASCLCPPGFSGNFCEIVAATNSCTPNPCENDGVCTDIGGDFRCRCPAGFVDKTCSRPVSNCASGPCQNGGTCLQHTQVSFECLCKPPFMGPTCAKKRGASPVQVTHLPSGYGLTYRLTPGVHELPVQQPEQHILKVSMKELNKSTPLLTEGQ

B1: I18 (antibody, V domains shown)
VH: QVQLKESGPGLVAPSQSLSITCTVSGFSLILYGVHWVRQPPGKGLEWLGLIWAGGSTNYNSALMSRLSISKDNSKSQVFLKMNSLQTDDTAMYYCVRKHSNYLAMDYWGQGTSVTVSS
VL: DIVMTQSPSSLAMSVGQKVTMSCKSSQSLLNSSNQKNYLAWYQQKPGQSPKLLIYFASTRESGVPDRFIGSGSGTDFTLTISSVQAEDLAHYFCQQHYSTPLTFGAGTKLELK
B1: no binding.
